The values below are quoted from earlier work in publication PMC10609526.

The data set has as its target DmsA Tat signal peptide (Escherichia coli) (UniProt P18775).
Chain of UniProt P18775 (P18775 1-45): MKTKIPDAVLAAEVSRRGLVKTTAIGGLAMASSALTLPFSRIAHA

In general, Kd refers to the concentration at which binding is half-saturated. With DmsD (from UniProt P69853), the Kd is 220 nM.
